We go through two molecules from PMC3864901, “A Conserved Sequence Extending Motif III of the Motor Domain in the Snf2-Family DNA Translocase Rad54 Is Critical for ATPase Activity” (PLoS ONE, 2013).

In data set [1] the test system is Rad54 (Saccharomyces cerevisiae). Kind of data set: EMSA (glutaraldehyde-fixed, agarose). The following applies: 13 mM Mg acetate, 25 mM TEA-Ac pH 7.5, 13 mM Mg acetate, 1.8 mM DTT, 100 ug/ml BSA, 11.25% glycerol, 113 mM NaCl, 30 uM bp pUC19, 30 C 15 min, then 0.25% glutaraldehyde 15 min ….
Substrate in data set [2]: Nc1ncnc2c1ncn2[C@@H]1O[C@H](COP(=O)(O)OP(=O)(O)OP(=O)(O)O)[C@@H](O)[C@H]1O
Kind of data set: NADH-coupled ATPase assay, Michaelis-Menten fit. It counts as biochemical, Saccharomyces cerevisiae. The following applies: 1.5 uM pUC19 dsDNA, 2.5 mM free Mg(OAc)2, 25 mM HEPES pH 7.5, 30 C, 5 nM Rad54. From the text:
NADH-coupled ATPase assay, Michaelis-Menten fit on Rad54 | Michaelis-Menten parameters of Rad54 and Rad54-2A as determined from the ATP titrations in B

As for pUC19 supercoiled dsDNA, the binding (bp per Rad54 monomer (all DNA bound)) in data set [1] (5 mM ATP + regeneration system) and in data set [1] (no nucleotide) was 36 throughout.

B1: Rad54 (Saccharomyces cerevisiae S288C) (protein)
chain: MARRRLPDRPPNGIGAGERPRLVPRPINVQDSVNRLTKPFRVPYKNTHIPPAAGRIATGSDNIVGGRSLRKRSATVCYSGLDINADEAEYNSQDISFSQLTKRRKDALSAQRLAKDPTRLSHIQYTLRRSFTVPIKGYVQRHSLPLTLGMKKKITPEPRPLHDPTDEFAIVLYDPSVDGEMIVHDTSMDNKEEESKKMIKSTQEKDNINKEKNSQEERPTQRIGRHPALMTNGVRNKPLRELLGDSENSAENKKKFASVPVVIDPKLAKILRPHQVEGVRFLYRCVTGLVMKDYLEAEAFNTSSEDPLKSDEKALTESQKTEQNNRGAYGCIMADEMGLGKTLQCIALMWTLLRQGPQGKRLIDKCIIVCPSSLVNNWANELIKWLGPNTLTPLAVDGKKSSMGGGNTTVSQAIHAWAQAQGRNIVKPVLIISYETLRRNVDQLKNCNVGLMLADEGHRLKNGDSLTFTALDSISCPRRVILSGTPIQNDLSEYFALLSFSNPGLLGSRAEFRKNFENPILRGRDADATDKEITKGEAQLQKLSTIVSKFIIRRTNDILAKYLPCKYEHVIFVNLKPLQNELYNKLIKSREVKKVVKGVGGSQPLRAIGILKKLCNHPNLLNFEDEFDDEDDLELPDDYNMPGSKARDVQTKYSAKFSILERFLHKIKTESDDKIVLISNYTQTLDLIEKMCRYKHYSAVRLDGTMSINKRQKLVDRFNDPEGQEFIFLLSSKAGGCGINLIGANRLILMDPDWNPAADQQALARVWRDGQKKDCFIYRFISTGTIEEKIFQRQSMKMSLSSCVVDAKEDVERLFSSDNLRQLFQKNENTICETHETYHCKRCNAQGKQLKRAPAMLYGDATTWNHLNHDALEKTNDHLLKNEHHYNDISFAFQYISH
notes: wild-type yeast Rad54, overexpressed in S. cerevisiae and purified as in earlier work
With B1, in data set [2], the Km (usually the concentration of substrate that gives half-maximal velocity) was found to be 170 ± 40 µM and the kcat was 1,219 ± 45 min-1.
